Results reported in PMC3816843.
Like-named read-outs stand apart in the source and are kept apart here.

Assays:
[1] = molecular target: T1, Factor XIIa (alpha-FXIIa) (UniProt P00748;P00748 20-372;373-615); experiment: double-filter nitrocellulose binding
T1 sequence 1: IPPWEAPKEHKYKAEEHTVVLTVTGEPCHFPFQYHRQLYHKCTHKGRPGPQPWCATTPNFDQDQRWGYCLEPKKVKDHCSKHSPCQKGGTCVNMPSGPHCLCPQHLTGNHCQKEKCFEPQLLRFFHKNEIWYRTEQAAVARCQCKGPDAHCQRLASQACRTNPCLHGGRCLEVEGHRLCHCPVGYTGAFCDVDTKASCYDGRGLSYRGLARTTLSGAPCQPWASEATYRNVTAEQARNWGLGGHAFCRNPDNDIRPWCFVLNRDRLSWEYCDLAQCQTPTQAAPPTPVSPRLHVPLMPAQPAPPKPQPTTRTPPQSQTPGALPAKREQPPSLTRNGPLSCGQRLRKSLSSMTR
T1 sequence 2: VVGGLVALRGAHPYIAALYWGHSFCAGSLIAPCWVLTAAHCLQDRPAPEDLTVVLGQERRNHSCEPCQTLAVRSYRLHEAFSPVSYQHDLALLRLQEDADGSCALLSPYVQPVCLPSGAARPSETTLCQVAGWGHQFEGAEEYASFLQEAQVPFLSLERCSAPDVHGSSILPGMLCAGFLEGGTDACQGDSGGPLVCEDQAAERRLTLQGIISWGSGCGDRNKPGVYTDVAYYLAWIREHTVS

[2] = molecular target: T2, Factor XII (FXII, zymogen) (human, UniProt P00748 20-615); experiment: double-filter nitrocellulose binding
T2 sequence: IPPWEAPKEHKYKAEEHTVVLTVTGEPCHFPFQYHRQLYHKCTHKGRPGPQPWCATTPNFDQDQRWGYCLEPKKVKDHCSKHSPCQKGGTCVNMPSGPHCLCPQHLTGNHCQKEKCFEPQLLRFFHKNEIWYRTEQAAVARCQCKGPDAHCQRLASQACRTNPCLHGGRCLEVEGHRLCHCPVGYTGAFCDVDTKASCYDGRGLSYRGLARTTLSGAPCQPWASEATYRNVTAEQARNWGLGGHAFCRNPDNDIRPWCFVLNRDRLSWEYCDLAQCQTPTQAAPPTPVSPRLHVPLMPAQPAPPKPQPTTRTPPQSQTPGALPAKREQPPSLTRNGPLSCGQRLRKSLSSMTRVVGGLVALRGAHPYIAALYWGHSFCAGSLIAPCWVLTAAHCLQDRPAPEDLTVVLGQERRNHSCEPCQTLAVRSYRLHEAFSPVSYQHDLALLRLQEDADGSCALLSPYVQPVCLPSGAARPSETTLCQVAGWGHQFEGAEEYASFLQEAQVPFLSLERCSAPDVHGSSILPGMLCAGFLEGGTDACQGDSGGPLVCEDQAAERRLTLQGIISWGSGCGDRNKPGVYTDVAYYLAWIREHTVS

[3] = molecular target: T1, Factor XIIa (alpha-FXIIa); experiment: nitrocellulose filter binding
[4] = molecular target: T2, Factor XII (FXII, zymogen); experiment: nitrocellulose filter binding
[5] = molecular target: T1, Factor XIIa (alpha-FXIIa); experiment: double-filter nitrocellulose binding; remark: listed apart in the source
[6] = molecular target: T2, Factor XII (FXII, zymogen); experiment: double-filter nitrocellulose binding; remark: listed apart in the source

B1: R4cXII-1t (XNA)
RNA: GGCUCGGCUGCCAGCAGGUCACGAGUCGCAGCGACUCGCUGAGGAUCCGAG
modifications: all C and U are 2'-fluoro; A and G ribo
B1 gave a Kd [1] of 0.4 ± 0.02 nM and a Kd [2] of 12.9 ± 2.06 nM.

B2: scrambled control RNA (XNA)
RNA: GGGGCAGCCGUGGACCGACUGCCGCAUGCCAUUGACAGUCCGAUGCCAGGC
modifications: all C and U are 2'-fluoro; A and G ribo
B2: no binding [3]; no binding [4].

B3: R4cXII-1 (XNA)
RNA: GGGAGGACGAUGCGGCCAAAUCUCGGCUGCCAGCAGGUCACGAGUCGCAAGAUAACAGACGACUCGCUGAGGAUCCGAGA
modifications: all C and U are 2'-fluoro; A and G ribo
Binder B3 has a Kd [5] of 0.5 ± 0.2 nM and a Kd [6] of 8.9 ± 1 nM.
